The nature of data set [1]: Optimal temperature, cysteine synthase activity assaying method (2). The class given is biochemical. The conditions noted are these: 4 minutes reaction, FIG. 2. As for the experimental part:
The optimal temperature was determined by the following assaying method (2) for cysteine synthase activity. Assaying Method of Cysteine Synthase Activity (2) Purified enzyme was added to 50 mM potassium phosphate buffer (pH 7.5 or 7.0) containing 20 mM O-acetylserine and 2 mM sodium sulfide as substrates, and 0.2 mM pyridoxal 5′-phosphate so as to establish an enzyme concentration of 0.8 μg/mL, the reaction was brought about for 4 minutes, and the amount of cysteine synthesized was determined by the ninhydrin method to assay the enzyme activity.

The nature of data set [2]: Heat resistance, residual activity after incubation, assaying method (1). The following applies: for residual activity: 0.3 mg/mL enzyme in 50 mM potassium phosphate buffer (pH 6.7), FIG. 3. The class given is physicochemical. As for the experimental part: The optimal pH was determined by the following assaying method (1) for cysteine synthase activity. Assaying Method of Cysteine Synthase Activity (1) Four enzyme solution samples were prepared by adding cysteine synthase to 50 mM potassium phosphate buffer (pH 6.7) containing 1 mM EDTA and 0.2 mM pyridoxal 5′-phosphate so as to obtain an enzyme concentration of 0.3 mg/mL. The samples were incubated for 6 hours at 4° C., 80° C., and 100° C., respectively, to assay residual activity.

B1: cysteine synthase: Heat-resistant cysteine synthase (O-acetylserine sulfhydrylase) of hyperthermophilic archaea Aeropyrum pernix K1, SEQ ID NO: 2, produced recombinantly in E. coli (protein)
chain: VALADISGYLDVLDSVRGFSYLENAREVLRSGEARCLGNPRSEPEYVKALYVIGASRIPVGDGCSHTLEELGVFDISVPGEMVFPSPLDFFERGKPTPLVRSRLQLPNGVRVWLKLEWYNPFSLSVKDRPAVEIISRLSRRVEKGSLVADATSSNFGVALSAVARLYGYRARVYLPGAAEEFGKLLPRLLGAQVIVDPEAPSTVHLLPRVMKDSKNEGFVHVNQFYNDANFEAHMRGTAREIFVQSRRGGLALRGVAGSLGTSGHMSAAAFYLQSVDPSIRAVLVQPAQGDSIPGIRRVETGMLWINMLDISYTLAEVTLEEAMEAVVEVARSDGLVIGPSGGAAVKALAKKAAEGDLEPGDYVVVVPDTGFKYLSLVQNALEGAGDSV
modifications: Aeropyrum pernix K1
Consider B1, for which the optimal temperature entry in data set [1] (50 mM potassium phosphate buffer pH 7.0) is “about 60 °C”; in data set [1] (50 mM potassium phosphate buffer pH 7.5), “about 50 °C”. In addition, the residual activity entry in data set [2] (after 6 hours of incubation at 80° C.) is recorded as “about 97%”; in data set [2] (after 6 hours of incubation at 100° C.), “about 85%”. Besides, the “activity of the enzyme after heat-treatment” value in data set [2] (heat-treatment at 80° C. for 6 hours) was “substantially unimpaired”.
